Data reported in patent US7329737 (DYAX, dated 2008).

B1: M0109-E08 (Fab, V domains shown)
VH: EVQLLESGGGLVQPGGSLRLSCAASGFTFSHYTMLWVRQAPGKGLEWVSSIYSSGGSTYYADSVKGRFTISRDNSKNTLYLQMNSLRAEDTAVYYCARVGVWYGMDVWGQGTTVTVSS
VL: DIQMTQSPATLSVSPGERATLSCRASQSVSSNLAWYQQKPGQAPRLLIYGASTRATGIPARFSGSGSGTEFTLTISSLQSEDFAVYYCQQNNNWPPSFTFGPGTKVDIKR
B2: M0104-B03 (Fab, V domains shown)
VH: EVQLLESGGGLVQPGGSLRLSCAASGFTFSNYTMFWVRQAPGKGLEWVSSIYPSGGITRYADSVKGRFTISRDNSKNTLYLQMNSLRAEDTAVYYCARVSFWNAFDIWGQGTMVTVSS
VL: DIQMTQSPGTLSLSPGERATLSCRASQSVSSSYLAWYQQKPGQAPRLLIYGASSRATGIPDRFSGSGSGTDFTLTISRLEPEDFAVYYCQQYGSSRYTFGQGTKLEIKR
B3: M0096-E11 (Fab, V domains shown)
VH: EVQLLESGGGLVQPGGSLRLSCAASGFTFSHYLMYWVRQAPGKGLEWVSSIYPSGGFTAYADSVKGRFTISRDNSKNTLYLQMNSLRAEDTAVYYCARRGVYGTFDIWGQGTMVTVSS
VL: DIQMTQSPLSLSASVGDRVTMTCRASQTISSYLNWYQQKPGKAPKLLIYTTSSLQSGVPSRFSGSGSGTEFTLTISSLQPEDFATYYCQQSHSSPTFGGGTKVEIKR
B4: M0103-A03 (Fab, V domains shown)
VH: EVQLLESGGGLVQPGGSLRLSCAASGFTFSHYPMSWVRQAPGKGLEWVSYIRSGGYTTYADSVKGRFTISRDNSKNTLYLQMNSLRAEDTAVYYCARERVFCSGGRCGSYFDYWGQGTLVTVSS
VL: DIQMTQSPSSVSASVGDRVTITCRASQDVRRFLAWYQQKPGKAPKLLIYAASSLQSGVPSRFSGSGSGTDFTLTISSLQPEDFATYYCQQANSFPITFGQGTRLEIKR
B5: M0099-A09 (Fab, V domains shown)
VH: EVQLLESGGGLVQPGGSLRLSCAASGFTFSRYAMFWVRQAPGKGLEWVSSISPSGGKTRYADSVKGRFTISRDNSKNTLYLQMNSLRAEDTAVYYCARGGGTALDYWGQGTLVTVSS
VL: DIQMTQSPGTLSLSPGERATLSCRASQSVYSSYLAWYQQKPGQAPRLLIYAASNRAIGIPDRFSGSGSGTDFTLTISSMQPEDFATYYCQQSYSTPRFGQGTKLEIKR
B6: M0105-F02 (Fab, V domains shown)
VH: EVQLLESGGGLVQPGGSLRLSCAASGFTFSRYWMAWVRQAPGKGLEWVSSIGPSGGSTKYADSVKGRFTISRDNSKNTLYLQMNSLRAEDTAVYYCARTARWLSFDYWGQGTLVTVSS
VL: DIQMTQSPSTLSASVGDRVTITCRASQSISSWLAWYQQKPGEAPKLLIYAASSLRNGVPSRFIGSGSGTDFTLTISSLQPEDFATYYCQQSYSTPPTFGGGTKVEIKR
B7: M0112-C02 (Fab, V domains shown)
VH: EVQLLESGGGLVQPGGSLRLSCAASGFTFSNYYMLWVRQAPGKGLEWVSYIRSSGGSTRYADSVKGRFTISRDNSKNTLYLQMNSLRAEDTAVYYCAKPTVDGAFDYWGQGTLVTVSS
VL: DIQMTQSPGTLSLSPGDRATLSCRASQSVSSNYLAWYQQKPGQAPRLLIYGASSRATGIPDRFSGSGSGTDFTLTISRLEPEDFGVYYCQQFGSSLFTFGPGTKVNIKR
B8: M0125-C04 (Fab, V domains shown)
VH: EVQLLESGGGLVQPGGSLRLSCAASGFTFSHYVMDWVRQAPGKGLEWVSSIYPSGGWTRYADSVKGRFTISRDNSRNTLYLQMNSLRAEDTAVYYCARRGQWLVLDYWGQGTLVTVSS
VL: AQSELTQPASVSGSPGQSITISCAGTSSDLGGYDYVSWYQQYPGKAPKLIIYQVGRRPSGVSNRFSGSKSGNTASLTISGLQTEDEADYYCSSYTSSRTRVFGGGTRVTVLG

Target: T1, hK1 (human tissue kallikrein 1), recombinant (human, UniProt P06870 25-262)
T1 construct: Expressed in P. pastoris from KLK1 cDNA and purified; enzymatically active; also called KLK1; Recombinant (Pichia) Kallikrein
Assay: SPR

B1 and B2 are the same in Kd: 10.1 nM for the first, 10.1 nM for the second.

B3 and B4 are within 1.5-fold of each other in Kd: 10.1 nM for the first, 10.6 nM for the second.

B5 and B6 are within 1.5-fold of each other in Kd: 10.7 nM for the first, 10.9 nM for the second.

B7 and B8 are within 1.5-fold of each other in Kd: 10.9 nM for the first, 11.2 nM for the second.

B1 and B2 are within 1.5-fold of each other in koff: 0.00889 s⁻¹ for the first, 0.00711 s⁻¹ for the second.

B3 and B4 are within 1.5-fold of each other in koff: 0.00836 s⁻¹ for the first, 0.00988 s⁻¹ for the second.

Going from B5 to B6, the koff rises from 0.00285 s⁻¹ to 0.0103 s⁻¹ (3.6-fold).

B7 and B8 are within 1.5-fold of each other in koff: 0.00523 s⁻¹ for the first, 0.00536 s⁻¹ for the second.

B1 and B2 are within 1.5-fold of each other in kon: 880000 M⁻¹ s⁻¹ for the first, 707000 M⁻¹ s⁻¹ for the second.

B3 and B4 are within 1.5-fold of each other in kon: 827000 M⁻¹ s⁻¹ for the first, 931000 M⁻¹ s⁻¹ for the second.

Going from B5 to B6, the kon rises from 267000 M⁻¹ s⁻¹ to 947000 M⁻¹ s⁻¹ (3.5-fold).

B7 and B8 are within 1.5-fold of each other in kon: 481000 M⁻¹ s⁻¹ for the first, 478000 M⁻¹ s⁻¹ for the second.
